According to paper PMC4499152 (Nucleic Acids Research, 2015):
Values belong to the binder of their own block, whether it stands above or below them.

Tests used:
Assay in all cases: pull-down
[1] = target: GST fusion with the C-terminal DNA-PKcs fragment H (a.a. 3747-4128) (human, UniProt P78527 3747-4128)
[2] = target: GST fusion with DNA-PKcs fragment H2 (a.a. 3747-4097) (human, UniProt P78527 3747-4097)
[3] = target: hnRNP-A1 N-terminal RRMs fragment (a.a. 1-188) (UniProt P09651-2 1-188)

Chain of GST fusion with DNA-PKcs fragment H2 (a.a. 3747-4097) (P78527 3747-4097): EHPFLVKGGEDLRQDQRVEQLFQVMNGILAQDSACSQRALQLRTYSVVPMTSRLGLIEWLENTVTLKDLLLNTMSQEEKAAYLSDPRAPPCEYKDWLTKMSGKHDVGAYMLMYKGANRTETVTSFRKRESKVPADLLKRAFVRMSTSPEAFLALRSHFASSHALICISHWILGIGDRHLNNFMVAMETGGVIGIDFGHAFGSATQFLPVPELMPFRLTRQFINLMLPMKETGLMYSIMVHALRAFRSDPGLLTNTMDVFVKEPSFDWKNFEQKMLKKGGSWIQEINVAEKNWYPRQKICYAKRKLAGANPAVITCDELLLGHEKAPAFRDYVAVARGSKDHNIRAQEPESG

binding result [1]: binds
binding result [2]: binds
B1: His-tagged full-length hnRNP-A1 (recombinant, wild type) (natural protein, UniProt P09651-2 1-320, looked up)
chain: MSKSESPKEPEQLRKLFIGGLSFETTDESLRSHFEQWGTLTDCVVMRDPNTKRSRGFGFVTYATVEEVDAAMNARPHKVDGRVVEPKRAVSREDSQRPGAHLTVKKIFVGGIKEDTEEHHLRDYFEQYGKIEVIEIMTDRGSGKKRGFAFVTFDDHDSVDKIVIQKYHTVNGHNCEVRKALSKQEMASASSSQRGRSGSGNFGGGRGGGFGGNDNFGRGGNFSGRGGFGGSRGGGGYGGSGDGYNGFGNDGSNFGGGGSYNDFGNYNNQSSNFGPMKGGNFGGRSSGPYGGGGQYFAKPRNQGGYGGSSSSSSYGSGRRF

binding result [3]: binds
B2: GST fusion with DNA-PKcs fragment H3 (a.a. 4036-4128) (domain or fragment, human, UniProt P78527 4036-4128, looked up)
chain: KNWYPRQKICYAKRKLAGANPAVITCDELLLGHEKAPAFRDYVAVARGSKDHNIRAQEPESGLSEETQVKCLMDQATDPNILGRTWEGWEPWM
